Test results as given in PMC6899989.
Values belong to the substance of their own block, whether it stands above or below them.

How the values were obtained:
[1] = biological target: RpBphP1, sample used for size exclusion chromatography (synthesised gene) (Rhodopseudomonas palustris); experiment: SEC; Superose 12 10/300 GL, 200 μL at 1-4 mg/mL, 5 mM TrisHCl pH 8, 10 mM NaCl; in the dark (Pfr state)
[2] = biological target: RpBphP1, sample used for size exclusion chromatography (synthesised gene) (Rhodopseudomonas palustris); experiment: SEC; Superose 12 10/300 GL, 200 μL at 1-4 mg/mL, 5 mM TrisHCl pH 8, 10 mM NaCl; after illumination with 760 nm light for 5 min (Pr state)
[3] = biological target: N-terminal His6-tagged RpPpsR2 (gene repressor from Rhodopseudomonas palustris) (Rhodopseudomonas palustris); experiment: pull-down; Ni(II)-affinity chromatography on 1 mL His-Trap HP; His6-RpPpsR2 mixed 1:4 with untagged RpBphP1 or RpBphP1ΔHOS; illuminated for 5 min with 760 nm light (Pr state); imidazole elution monitored at 280 and 400 nm; SDS/PAGE scan of peak BP
[4] = biological target: full-length RpBphP1, SAXS sample (gene PCR amplified from Rps. palustris strain 2.1.6, in pET28a) (Rhodopseudomonas palustris); experiment: SAXS; 5 mM Tris pH 8, 1 and 4 mg/mL, 8 °C; continuous illumination with 760 nm light (Pr state); mass by SAXS MoW2, ab-initio envelopes
[5] = biological target: full-length RpBphP1, SAXS sample (gene PCR amplified from Rps. palustris strain 2.1.6, in pET28a) (Rhodopseudomonas palustris); experiment: SAXS; 5 mM Tris pH 8, 1 and 4 mg/mL, 8 °C; dark-purified protein measured in darkness (Pfr state); mass by SAXS MoW2, ab-initio envelopes
[6] = biological target: N-terminal His6-tagged RpPpsR2 (gene repressor from Rhodopseudomonas palustris) (Rhodopseudomonas palustris); experiment: SEC; RpPpsR2 in 5 mM DTT

- stoichiometry N [1]: 2
- stoichiometry N [2]: 2
Substance: RpBphP1, sample used for size exclusion chromatography (synthesised gene) (natural protein)

- stoichiometry N (RpBphP1 per RpPpsR2) [3]: 2
Substance: untagged full-length RpBphP1 (bacteriophytochrome from Rhodopseudomonas palustris) (natural protein)

- stoichiometry N [4]: 2
- stoichiometry N [5]: 2
Substance: full-length RpBphP1, SAXS sample (gene PCR amplified from Rps. palustris strain 2.1.6, in pET28a) (natural protein)

- stoichiometry N [6]: 2
Substance: N-terminal His6-tagged RpPpsR2 (gene repressor from Rhodopseudomonas palustris) (natural protein)
